We go through two substances from US20110160280.

Substitutions are numbered along the chain they refer to.

The target of data set [1] is GST-tagged partial EGFR fragment #3 (codons 1046-1186) (UniProt P00533).
Data set [2] addresses active recombinant EGFR (Millipore) (UniProt P00533).
The test system of data set [3] is active recombinant MET (Millipore).
Data set [4] deals with T1, WDHD1 S374A immunoprecipitant.
T1 sequence: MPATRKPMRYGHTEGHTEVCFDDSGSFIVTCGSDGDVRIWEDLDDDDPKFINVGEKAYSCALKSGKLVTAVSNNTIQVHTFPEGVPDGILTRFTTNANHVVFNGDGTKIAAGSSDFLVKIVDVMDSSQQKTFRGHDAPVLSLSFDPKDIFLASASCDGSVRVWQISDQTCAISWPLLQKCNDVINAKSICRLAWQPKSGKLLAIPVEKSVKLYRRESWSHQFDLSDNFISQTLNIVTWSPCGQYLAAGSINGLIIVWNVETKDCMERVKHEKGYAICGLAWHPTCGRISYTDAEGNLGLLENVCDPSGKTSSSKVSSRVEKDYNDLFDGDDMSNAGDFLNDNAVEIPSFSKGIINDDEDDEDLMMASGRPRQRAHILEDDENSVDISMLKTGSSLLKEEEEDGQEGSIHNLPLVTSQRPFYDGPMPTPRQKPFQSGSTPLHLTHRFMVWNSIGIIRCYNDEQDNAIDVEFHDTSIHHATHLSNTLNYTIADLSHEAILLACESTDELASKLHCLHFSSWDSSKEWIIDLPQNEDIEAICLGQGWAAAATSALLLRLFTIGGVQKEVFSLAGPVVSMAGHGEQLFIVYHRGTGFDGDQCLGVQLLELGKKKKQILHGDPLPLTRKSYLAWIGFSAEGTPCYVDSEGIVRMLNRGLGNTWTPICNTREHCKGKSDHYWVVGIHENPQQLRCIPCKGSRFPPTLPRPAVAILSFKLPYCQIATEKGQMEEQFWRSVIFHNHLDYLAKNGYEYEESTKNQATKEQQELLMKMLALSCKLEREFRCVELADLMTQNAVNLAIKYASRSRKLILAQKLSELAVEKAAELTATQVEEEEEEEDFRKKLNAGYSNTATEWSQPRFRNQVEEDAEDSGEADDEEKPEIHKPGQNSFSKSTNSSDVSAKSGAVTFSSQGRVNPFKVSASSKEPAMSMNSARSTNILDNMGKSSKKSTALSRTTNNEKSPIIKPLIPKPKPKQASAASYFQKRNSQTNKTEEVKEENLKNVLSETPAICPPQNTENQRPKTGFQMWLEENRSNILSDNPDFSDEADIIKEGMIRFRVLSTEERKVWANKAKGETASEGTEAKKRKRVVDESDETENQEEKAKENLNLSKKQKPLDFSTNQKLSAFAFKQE

In data set [5] the test system is T2, WDHD1 immunoprecipitant, wild type (c-Myc-tagged WDHD1, pcDNA3.1/myc-His-WDHD1).
T2 sequence: T1 sequence with A374S

Chain of active recombinant EPHA7 (Carnabioscience) (chain, as listed by the source): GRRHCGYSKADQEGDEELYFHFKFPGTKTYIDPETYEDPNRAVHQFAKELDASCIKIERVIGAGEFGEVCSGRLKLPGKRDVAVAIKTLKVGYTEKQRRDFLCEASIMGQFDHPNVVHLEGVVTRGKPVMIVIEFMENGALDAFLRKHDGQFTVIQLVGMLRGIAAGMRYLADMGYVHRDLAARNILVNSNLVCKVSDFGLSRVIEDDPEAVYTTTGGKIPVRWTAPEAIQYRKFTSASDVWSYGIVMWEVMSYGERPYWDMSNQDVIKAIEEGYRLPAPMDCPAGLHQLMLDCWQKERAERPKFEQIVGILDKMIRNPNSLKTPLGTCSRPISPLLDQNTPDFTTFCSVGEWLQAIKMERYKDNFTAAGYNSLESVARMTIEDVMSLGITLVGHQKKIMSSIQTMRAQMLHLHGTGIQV
Chain of active recombinant MET (Millipore) (chain, as listed by the source): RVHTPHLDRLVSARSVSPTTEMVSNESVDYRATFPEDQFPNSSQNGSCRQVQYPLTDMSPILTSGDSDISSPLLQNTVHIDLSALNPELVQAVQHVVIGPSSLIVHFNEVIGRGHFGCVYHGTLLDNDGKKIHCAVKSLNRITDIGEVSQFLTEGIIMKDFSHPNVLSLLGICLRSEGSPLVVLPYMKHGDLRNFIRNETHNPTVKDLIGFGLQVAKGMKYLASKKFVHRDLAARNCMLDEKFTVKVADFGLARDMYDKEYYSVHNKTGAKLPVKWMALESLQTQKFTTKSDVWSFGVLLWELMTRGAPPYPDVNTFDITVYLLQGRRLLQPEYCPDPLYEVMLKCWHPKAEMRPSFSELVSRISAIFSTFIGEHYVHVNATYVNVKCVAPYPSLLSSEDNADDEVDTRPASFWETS

On to “active recombinant EPHA7 (Carnabioscience)”, for which the “in vitro kinase assay (phosphorylation of partial EGFR fragment)” value in data set [1] is “phosphorylated tyrosine residues on cytoplasmic EGFR could be present in COOH-terminal portion (codons 1046-1186)”. Further, the “in vitro kinase assay (phosphorylation of EGFR)” value in data set [2] was “EPHA7 could directly phosphorylate EGFR under the existence of EGFR kinase inhibitor that had diminished autophosphorylation of EGFR”. In data set [3], the “in vitro kinase assay (level of EPHA7 phosphorylation)” value is listed as “the level of EPHA7 phosphorylation was markedly elevated when MET was co-incubated in the presence MET kinase inhibitor” and the “in vitro kinase assay (phosphorylation of MET)” value is on record as “EPHA7 could directly phosphorylate MET”.

“recombinant human AKT1 (rhAKT1; Invitrogen)”: the “in vitro kinase assay, immunoblot with PAS antibody” value in data set [4] is given as “clearly indicated the reduced levels of WDHD1 phosphorylation in cells transfected with S374A mutant”; in data set [5] it was “proved the direct phosphorylation of WDHD1 by AKT”.
